Laboratory results: publication PMC3202669

Molecular target: 7c12 monobody displayed on phage
Assay: ELISA

fold reduction of binding against WT: 400 fold
Substance: GST-Abl SH2 I164E (domain or fragment)
